For 11 substances, relative binding per units (IgG1 = 1) (relative to IgG1) and Kd results are on record in paper PMC9067469.

Experiment in all cases: SPR
In general terms: In SPR one partner is held on a chip, and binding of the other changes the refractive index at the surface.

For assay [1], the target named is IgG1 (pH-dependent anti-latent myostatin antibody with wild-type human IgG1 constant region) (human).
Assay [2] concerns the target V3-pI(A)-N434A (human IgG1 Fc variant G236N/H268D/Q311R/A330K/D413K/N434A of the pH-dependent anti-l (human)).
Assay [3] concerns the target V2 (human IgG1 Fc variant G236N/H268D of an anti-latent myostatin antibody) (human).
Assay [4] addresses V3 (human IgG1 Fc variant G236N/H268D/A330K of the pH-dependent anti-latent myostatin antibody) (human).
For assay [5], the target named is V1 (human IgG1 Fc variant G236N of an anti-latent myostatin antibody) (human).
Assay [6] has as its target V3-N434A (human IgG1 Fc variant G236N/H268D/A330K/N434A of the pH-dependent anti-latent myostatin antibody) (human).

“human FcγRIIIa(F), extracellular region (from UniProt P08637 17-208) (receptor)” showed a relative binding per units (IgG1 = 1) (relative to IgG1) in assay [1] of 1.
Take “cynomolgus FcγRIa, extracellular region (receptor)”: the figures for the relative binding per units (IgG1 = 1) (relative to IgG1) in assay [2] and in assay [1] were 0.71 and 1, respectively.
For “cynomolgus FcγRIIa3, extracellular region (receptor)”, the relative binding per units (IgG1 = 1) (relative to IgG1) in assay [3] is 2.36; in assay [2] it was 2.76; in assay [4], 2.77; in assay [1], 1.
For the substance “human FcγRIa, extracellular region (from UniProt P12314 16-292) (receptor)”, the relative binding per units (IgG1 = 1) (relative to IgG1) in assay [5] turned out to be 0.16.
Turning to “cynomolgus FcγRIIa1, extracellular region (receptor)”, the relative binding per units (IgG1 = 1) (relative to IgG1) in assay [3] came out at 1.45; in assay [2], 1.97; in assay [4], 2; in assay [1], 1.
As for “cynomolgus FcγRIIa2, extracellular region (receptor)”, the relative binding per units (IgG1 = 1) (relative to IgG1) in assay [3] was determined as 1.89; in assay [2] it was 2.52; in assay [4], 2.56; in assay [1] it was 1.
Take “cynomolgus FcγRIIIa(R), extracellular region (from UniProt Q8SPW2 17-208) (receptor)”: the relative binding per units (IgG1 = 1) (relative to IgG1) in assay [1] came out at 1.
Substance “cynomolgus FcγRIIIa(S), extracellular region (from UniProt Q8SPW2 17-208) (receptor)” displayed a relative binding per units (IgG1 = 1) (relative to IgG1) in assay [1] of 1.
Consider “human FcγRIIIa(V), extracellular region (from UniProt P08637 17-208) (receptor)”, for which the relative binding per units (IgG1 = 1) (relative to IgG1) in assay [1] came out at 1.
As for “cynomolgus FcγRIIb, extracellular region (receptor)”, the relative binding per units (IgG1 = 1) (relative to IgG1) in assay [2] stood at 2.83; in assay [1] it was 1.
“cynomolgus FcRn (from UniProt Q8SPV9 24-365) (receptor)”: the figures for the Kd in assay [6], in assay [2] and in assay [1] were 526 nM, 355 nM and 1520 nM, respectively.
